Reference: the supplement of paper PMC9942255
Several values for one entry are separate records, joined by “and”; a condition that tells them apart may be missing. Equal values may be shown once.

Tested on: Bacillus subtilis DB104 (SP-AmyQ fusion secretion)
Test: AmyQ secretion efficiency, weighted average sort bin (1 = best secretion, 10 = worst) (bin number (weighted average, 1-10)); higher = lower secretion efficiency
Summary of the method: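 Occupied alginate beads were sorted by large-particle flow cytometry into 10 equally populated bins according to green/red fluorescence ratio. Each bead (~65 nL) held fluorescein-starch and about 0.3 cells of a B. subtilis DB104 library expressing mature AmyQ fused to designed signal peptides from the amyE locus, and beads were grown about 13 h at room temperature and stained with nile red before sorting. Bin amplicons were Illumina-sequenced, and the secretion score is the read-frequency-weighted average bin number, normalised to beads per bin, excluding low-abundance sequences.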

Row | Sequence | AmyQ secretion efficiency
1 | MKKKLAAGLTASAIVGTTLVVTPTEAATI | 2.75
2 | MRKKLKWLSFLLGFIILLFLFKYQFSFNDS | 6.3
3 | MRKKHKTISLLIIFLLASAVLAKPIEAHTV | 2.55
4 | MIIWIYVVLVLSIAGIGGFSVHAASS | 7.11
5 | MGLGKKLSVAVAASFMSLSISLDDEVQAAEG | 1.35
6 | MGQGKGSVFLILLLMLTLVVAPKEKAEAASS | 1.82
7 | MRKWYFILLAGVLTSVILAFVYDKGKANEE | 2.67
8 | MKKAFLVFLSVVLVTTVFLVVSFESVAQAKQL | 2.33
9 | MKKAFILSAAAAVGLFTFGASAKEL | 5.43
10 | MKRIRIPMTLALGAALTIAPLSFTSAEEN | 3.52
11 | MRFTKVVGFLSVLGVFPLTAQAEKA | 5.6
12 | MKSKWMSGLLLVAVGFSFTQVMVHAGET | 6.97 and 4.43 and 7.09
13 | MRNLTKTSLLLAGLCTAAIMVFVIHASAEES | 5.76
14 | MRIFKKTYSQQGQTFLIATVNVNTAHAAID | 8.8
15 | MLCVMMLLFSAIASFPVSLQAKDQ | 5.46
16 | MKSCKQYKRCQYSSILLLIPSVSFAADS | 7.62
17 | MKVPKTMLLSTAAGLLLSLRRKKRKVSAHYV | 6.33
18 | MFKKLLLATSALTFSLSLVLEEDDHAKAQEV | 3.32
19 | MTKKAWFLPLVCVLLISGWLAPAASLSAQTT | 3.89
20 | MFKKHTISLLIIFLLASAVLAKPMEAHTV | 2.67
21 | MGGSILIQVMIMFTLLLTMAFSADAADS | 5.96
22 | MKRFLIGAGVAAVILSGWFIADHQTHSQEM | 7.62 and 6.01 and 6.59
23 | MMRTWNVCLTALLSVLLVAGSVPFHAEAKKP | 3.23
24 | MKKLLAAGIIGLLTVSIASPGFAAEK | 2.84
25 | MTSLMMLSMLTVMIASLFIFSSQALAVQY | 3.98
26 | MLKKKWMVGLLAGCLAAGGFSYNAFQTEN | 6.95

Row | Sequence | AmyQ secretion efficiency
27 | MFGWMAGLFLAAAVLLCLMVPQQIQGASS | 4.3
28 | MKLSVKIAGVLTVAAAAMTAKMYATPKGN | 5.67
29 | MTKKAWFLPLVCVLLISGWLAPAASMSAQTT | 3.47
30 | MKSCKQLIVCSLAAILLLKRKKKRSFAADS | 7.68
31 | MLKKIALTLCPAIVGSLLFFTAPPSAHVS | 6.86
32 | MMKVLMAFIICLSLILSVLAAPPSGAKAESV | 5
33 | MLKKIALTLCPAIVGSLLFFTAPASGHVS | 2.72
34 | MKKVMLATALFLGLTRRKANAADL | 7.36
35 | MLCVMMLLFSAIAKKRRKRAQAKDQ | 7.12
36 | MNKKYQTGQVCIIFTSALFPTFSSVTAAQG | 3.64
37 | MTKLKMLSMLTVMIASLFIFSSQALLVQY | 6.07
38 | MRKTIFAFLTGLMMFGTITASPSTASASPD | 2.04
39 | MKRTWNVCLTALLSVLLVAGSVPFHAEAAKK | 2.52
40 | MAIIIAIIAAVIVIAALITFNVGGSPVVSTSTARNASPG | 3.35
41 | MKRKKVLLSALLLLLFAFEPSASGKKL | 2.93
42 | MTIIIAIIAAVIVIAALITFNVRNASPG | 7.45
43 | MKRKLRRKRRKSALSLGLLVSAPTASFAAES | 7.05
44 | MKRLFMKARRRLFAVVFVFAVKGAPAKAETH | 6.05
45 | MPYLKRVLLLLVTGLFMSLFAVTATSSAQTG | 1.26
46 | MLLKWMSGLLLVAVGFSFTQVMVHAGET | 5.02
47 | MKVLLSALLLLLFAFEPSTVVTAATAVASGKKL | 2.96
48 | MKQGKFSKRLILLLMLTLVVAPKEKAEAASS | 1.59
49 | MLTKRLLTIYIMLLGLIAWFPGATVPAQAEEK | 2.86
50 | MLKRTSFVSSLFIFMAVLLIILTLPSGQAHAQSA | 1.9
51 | MNKKYFVLIVCIIFTSALFPTFSSVTTAQG | 1.05
52 | MNLRKILLSSALSLGMLVSAAPFLATSS | 6.67

Row | Sequence | AmyQ secretion efficiency
53 | MKRTWNVCLTALLSVLLVAGSVPSHAEAKKP | 1.85
54 | MRSYIKVLTMCFLGLILFVPTKLADNS | 5.85
55 | MKKAFILSAAAAVGLFTFGGVQQASEKEL | 6.66
56 | MFKFKKNFLVGLSAALMSISLFSATASAADD | 3.08
57 | MKKVLMAFIICLSLILSVLAAPPSGAKEESV | 3.2
58 | MLKRTSFVSSLFISSAVLLSILLPSGQVHAQSA | 1.69
59 | MMLMMSVSMFLVALTMCGGLFVTPAKAVKT | 4.77
60 | MFQFAITLSVLCALILLVPTLLVIPFQHNKEAGASV | 6.31
61 | MKNMSCKLVVSVTLFFSFLTIGPLAHPQNS | 5.55
62 | MGSGTIWTIILGALLVCCIAVAYTLTKSQAGASSS | 7.61
63 | MRKRKRRLILSAVLFLSCFFGARQTEASASKR | 2.98
64 | MKTKTLFIFSAILTLSIFAPNEVFAQTA | 1.58
65 | MPYLKRVLLLLVTGLFMSLFAVTATASPQTG | 1.86
66 | MSTIWIGMLAAAVLLLMVPKVSLADAA | 6.21
67 | MKKIVSILFMFGLVMGFSQFQPSTVFAASP | 1.65
68 | MRKKRVITCVMAASLTLGSLLPAGYASAADD | 5.09
69 | MKWMCKKCCAAVLLAGGAAQAEAV | 5.26
70 | MTKLKMLSMLTVMIASLFIFSSQALVVQY | 5.36
71 | MKKKLAAGLTASAIVGTTLVVTPEEAATI | 5.83
72 | MHLIRAAGAVCLAVVLIAGCRFIIVAIGAEGENT | 6.53
73 | MKKRLIAPMLLSAASLAFFAMSGSAQWAAY | 6.21
74 | MRKILLSSALSLGMLVSAAPVLATSS | 1.66
75 | MKSLPYTIALLFCGLIIVSMAAKGKKR | 7.49
76 | MKKCLAVTLVFGSMSFPTLTNSGGFKE | 4.92
77 | MKRFSTAYLLLGILCSAAVFLIKRPSRALGAEV | 6.46
78 | MKTKTLFIFSAILTLSIFAPNETFAQEE | 1.78

Row | Sequence | AmyQ secretion efficiency
79 | MLKKIALTLCPAIVGSLLFFTAPASPHVS | 8.85
80 | MKVLLSALLLLLFAFEPSCSGKKL | 5.53
81 | MKSKGSIMACLILFSFTITTFINTETISGFSN | 6.11
82 | MKKRLIAPMLLSAASLAFFAMSGSSVTAGAQAAAY | 6.18
83 | MLKKIALTLCPAIVAPASAHVS | 6.21
84 | MKVCQKSIVRFKRRKRRGTFVISVPFMANAQSD | 7.96
85 | MKTKTLKRFSAILTLSIFAPNETFAQTA | 3.24
86 | MQRRQRYRQRVIVIAALITFNVRNASPG | 8.93
87 | MKKKVKIAGVLTVAAAAMTAKMYATAKGN | 6.8
88 | MGRIKTKITILLVLLLLLAGGYWYIN | 6.88
89 | MKKLVLCVSILAVILSGVLLTQLS | 5.53
90 | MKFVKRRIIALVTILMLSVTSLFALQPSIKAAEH | 3.57
91 | MKSKGSIMKCQILFSFTITTFINTETISAFSN | 6.89
92 | MRFTKVVGFLSVLGLAAVFPLTSQAEKA | 4.09
93 | MYSKGLLAGALTATVLFGTCAVDVPGIISPKTAEAASQ | 2.38
94 | MNLRKILLSSALSLGMLVSAAPCLATSS | 2.03
95 | MKKWMITIAMLILAGIALFVFIRKLKSHKT | 7.72
96 | MRPVFPLILSAVLFLSCFDDDDDTEASASKR | 4.17
97 | MKKKQVMLALTAAAGLGLTALHSAPAAKIAPL | 6.05
98 | MKKISSVMLATALFLGLTPAGANAADL | 3.26
99 | MKSKGSIMACLILFLFMIFTFINTETISAFSN | 5.32
100 | MRSYIKVLTMCFLGLILFVPTALGDNS | 2.8
101 | MKKRLIAPMLLSAASLAFFAMSGSAQFAAY | 6.43
102 | MKKWMAGLFLAAAVLLCLMVPQQTTGTSGSVIQGASS | 4.56
103 | MRSKKLWISLLFALTLIFVMAFGNMTAQAAGK | 1.9
104 | MGMLFKIIGWILLLCIIPLFAFTVIASGKEV | 2.66

Row | Sequence | AmyQ secretion efficiency
105 | MNKKYFVLIVCIIFTSALFPTFSSVTRAQG | 1.05
106 | MKRKKCSICCAAVLLAGGAAQAEAV | 6.17
107 | MKLSVKIAGVLTVAAAAMTAKMYATEKGN | 4.74
108 | MGLGKKLSVAVAASFMSLSISLPGVQNAEG | 2.95
109 | MKKVLMAFIICLSLILSVLAAPPSGAKAASV | 1.88
110 | MKNMSCKLVVSVTLFFSFLDSTPGAHAQNS | 1.96
111 | MKLKKRVSMFLVALTMCGGLFVTPPFVAKAVKT | 4.47
112 | MIMLWRSLALCGLALTLAPCAQAAEP | 4.91
113 | MKKSGSCQKTLAVILSGVALTQLS | 4.76
114 | MSGSRVITCVMAASLTLGSLLPAGYASAKED | 3.72
115 | MKFVKRRGSRGQTTSTLSVTSLFALQPSAKAAEH | 5.84
116 | MRPVFPLILSAVLFLFGARQTEASASKR | 5.49
117 | MGLGKKLSVAVAASFMSLSISLPGCQAAEG | 1.48
118 | MKKGYSTTSTGVLVTTVFLVKQQESVAQAKQL | 7.95
119 | MKRKLLSSLAISALSLGLLVSAPTASFGAES | 3.96
120 | MKKAKRVSALTPSTTLAITAKAKEL | 7.61
121 | MKSKGSIMACKRLFSFTITTFINTETISAFSN | 6.73
122 | MNKLKRLSMLTVMIASVFIFSSSHALAAQY | 1.68
123 | MRKYTVIASILLSFLSVLASTVFVSKAFPV | 8.75
124 | MKKQIITATTAVVLGSTLFAGASSAQSI | 2.25
125 | MKKTIMSFVAVAALSTTAFFAIASAKEI | 6.16
126 | MRPVFPLILSAVLFLSCFFAATVFFASASKR | 7
127 | MFRMIVRMTLPLLIVCLAFSSFSASARAASE | 1.61
